The Immune Epitope Database (IEDB)

How the values were obtained:
HLA-B*35:01 = experiment: IEDB peptide-MHC binding, purified MHC/direct/fluorescence; filed as Kd, often an IC50 or EC50 that approximates it; ≥ and ≤ were set here for values at or beyond the usual limits of such assays; settings: source organism: Yellow fever virus
HLA-B*51:01 [1] = experiment: as above; settings: source organism: Yellow fever virus
HLA-C*03:03 = experiment: as above
HLA-A*02:01 [2] = experiment: IEDB peptide-MHC binding, purified MHC/competitive/fluorescence; filed as Kd, often an IC50 or EC50 that approximates it; ≥ and ≤ were set here for values at or beyond the usual limits of such assays
HLA-B*08:02 = experiment: IEDB peptide-MHC binding, purified MHC/direct/fluorescence; filed as Kd, often an IC50 or EC50 that approximates it; ≥ and ≤ were set here for values at or beyond the usual limits of such assays; settings: source organism: West Nile virus strain PTRoxo
HLA-B*48:01 = experiment: as above; settings: source organism: West Nile virus
HLA-B*58:01 [3] = experiment: as above
HLA-A*03:01 [4] = experiment: as above
HLA-B*40:01 = experiment: as above
HLA-A*01:01 [5] = experiment: as above
HLA-A*11:01 = experiment: as above
HLA-B*18:01 [6] = experiment: as above; settings: source organism: West Nile virus
HLA-A*31:01 [7] = experiment: as above
HLA-B*27:05 = experiment: as above
HLA-B*44:02 [8] = experiment: as above; settings: source organism: West Nile virus
HLA-B*57:01 [9] = experiment: as above; settings: source organism: West Nile virus
HLA-A*31:01 [10] = experiment: IEDB peptide-MHC binding, purified MHC/competitive/fluorescence; filed as Kd, often an IC50 or EC50 that approximates it; ≥ and ≤ were set here for values at or beyond the usual limits of such assays
HLA-A*02:03 = experiment: as above; settings: source organism: Escherichia coli
HLA-A*02:11 = experiment: as above; settings: source organism: Escherichia coli
HLA-A*02:06 = experiment: as above; settings: source organism: Escherichia coli
HLA-A*02:12 = experiment: as above; settings: source organism: Escherichia coli
HLA-A*02:01 [11] = experiment: IEDB peptide-MHC binding, purified MHC/direct/fluorescence; filed as Kd, often an IC50 or EC50 that approximates it; ≥ and ≤ were set here for values at or beyond the usual limits of such assays; settings: source organism: Escherichia coli
HLA-B*07:02 = experiment: as above; settings: source organism: Escherichia coli
HLA-B*08:01 = experiment: as above; settings: source organism: Escherichia coli
HLA-A*69:01 = experiment: as above; settings: source organism: Escherichia coli
HLA-A*26:01 [12] = experiment: as above; settings: source organism: Escherichia coli
HLA-B*15:01 [13] = experiment: as above
HLA-A*24:03 = experiment: as above
HLA-B*58:01 [14] = experiment: IEDB peptide-MHC binding, purified MHC/competitive/radioactivity; filed as Kd, often an IC50 or EC50 that approximates it; ≥ and ≤ were set here for values at or beyond the usual limits of such assays
HLA-B*51:01 [15] = experiment: as above; settings: source organism: Dengue virus 3 Martinique/1243/1999
HLA-A*01:01 [16] = experiment: as above; settings: source organism: Dengue virus 3 Martinique/1243/1999
HLA-C*06:02 = experiment: IEDB peptide-MHC binding, purified MHC/direct/fluorescence; filed as Kd, often an IC50 or EC50 that approximates it; ≥ and ≤ were set here for values at or beyond the usual limits of such assays
HLA-B*44:03 = experiment: IEDB peptide-MHC binding, purified MHC/competitive/radioactivity; filed as Kd, often an IC50 or EC50 that approximates it; ≥ and ≤ were set here for values at or beyond the usual limits of such assays; settings: source organism: Dengue virus 3 Sri Lanka/1266/2000
HLA-B*53:01 = experiment: as above; settings: source organism: Dengue virus 3 Sri Lanka/1266/2000
HLA-B*44:02 [17] = experiment: as above; settings: source organism: Dengue virus 3 Sri Lanka/1266/2000
HLA-A*03:01 [18] = experiment: IEDB peptide-MHC binding, purified MHC/competitive/fluorescence; filed as Kd, often an IC50 or EC50 that approximates it; ≥ and ≤ were set here for values at or beyond the usual limits of such assays
HLA-B*46:01 [19] = experiment: IEDB peptide-MHC binding, purified MHC/direct/fluorescence; filed as Kd, often an IC50 or EC50 that approximates it; ≥ and ≤ were set here for values at or beyond the usual limits of such assays; settings: source organism: Yellow fever virus
HLA-B*39:01 = experiment: IEDB peptide-MHC binding, purified MHC/competitive/fluorescence; filed as Kd, often an IC50 or EC50 that approximates it; ≥ and ≤ were set here for values at or beyond the usual limits of such assays; settings: source organism: Escherichia coli
HLA-A*26:01 [20] = experiment: as above
HLA-B*46:01 [21] = experiment: as above; settings: source organism: Pan troglodytes
HLA-B*27:03 = experiment: as above; settings: source organism: Pan troglodytes
HLA-B*18:01 [22] = experiment: as above; settings: source organism: Pan troglodytes
HLA-B*15:01 [23] = experiment: as above; settings: source organism: Pan troglodytes
HLA-B*57:01 [24] = experiment: as above; settings: source organism: Pan troglodytes
HLA-C*15:02 = experiment: IEDB peptide-MHC binding, purified MHC/direct/fluorescence; filed as Kd, often an IC50 or EC50 that approximates it; ≥ and ≤ were set here for values at or beyond the usual limits of such assays; settings: source organism: Pan troglodytes
HLA-C*14:02 = experiment: as above; settings: source organism: Pan troglodytes
[25] = source organism: Yellow fever virus
[26] = source organism: Vaccinia virus WR
[27] = source organism: West Nile virus
[28] = source organism: Mammarenavirus juninense
[29] = source organism: Escherichia coli
[30] = source organism: Escherichia coli E22
[31] = source organism: Pan troglodytes

AATIRVLAL showed a Kd (HLA-B*35:01) of at least 20 µM, a Kd (HLA-B*51:01 [1]) of at least 20 µM and a Kd (HLA-C*03:03; [25]) of 9 nM.
With GLNDYLHSV the Kd (HLA-A*02:01 [2]; [26]) was 1.6 nM and the Kd (HLA-C*03:03; [26]) was at least 20000 nM.
ILRNPGYAL gave a Kd (HLA-B*08:02) of at least 20 µM, a Kd (HLA-B*48:01) of at least 20 µM and a Kd (HLA-B*58:01 [3]; [27]) of at least 20 µM. The Kd (HLA-A*03:01 [4]; [27]) was at least 20000 nM, the Kd (HLA-B*40:01; [27]) was at least 20 µM and the Kd (HLA-A*01:01 [5]; [27]) was at least 20 µM. It also gave a Kd (HLA-A*11:01; [27]) of at least 20 µM, a Kd (HLA-B*18:01 [6]) of at least 20 µM and a Kd (HLA-A*31:01 [7]; [27]) of at least 20000 nM. The Kd (HLA-B*27:05; [27]) was at least 20 µM, the Kd (HLA-C*03:03; [27]) was 157 nM and the Kd (HLA-B*44:02 [8]) was at least 20 µM. It also gave a Kd (HLA-B*57:01 [9]) of at least 20 µM.
In the case of KLFDLHGRR, the Kd (HLA-A*31:01 [10]; [28]) is reported as 11.1 nM and the Kd (HLA-A*03:01 [4]; [28]) is reported as 241 nM.
In the case of KVLCPYMPK, the Kd (HLA-A*31:01 [10]; source organism: Japanese encephalitis virus) is reported as 60.5 nM, the Kd (HLA-A*03:01 [4]; [27]) is reported as 562 nM and the Kd (HLA-A*11:01; [27]) is reported as 0.0037 µM.
LMQWWSDYV was tested, and the Kd (HLA-A*02:03) was at most 0.1 nM, the Kd (HLA-A*02:11) was at most 0.1 nM and the Kd (HLA-A*02:06) was 2.85 nM. For the same sequence, the Kd (HLA-A*02:12) was at most 0.1 nM, the Kd (HLA-B*58:01 [3]; [29]) was at least 20 µM and the Kd (HLA-A*02:01 [11]) was 5.74 nM. It also gave a Kd (HLA-A*03:01 [4]; [29]) of at least 20000 nM, a Kd (HLA-B*40:01; [29]) of at least 20 µM and a Kd (HLA-B*07:02) of at least 20 µM. The Kd (HLA-B*08:01) was at least 20 µM, the Kd (HLA-A*01:01 [5]; [29]) was at least 20 µM and the Kd (HLA-A*11:01; [29]) was at least 20 µM. The Kd (HLA-A*31:01 [7]; [29]) was 562 nM, the Kd (HLA-A*69:01) was 4.76 nM and the Kd (HLA-A*26:01 [12]) was 343 nM. For the same sequence, the Kd (HLA-B*27:05; [29]) was at least 20 µM, the Kd (HLA-B*15:01 [13]; [29]) was 234 nM and the Kd (HLA-A*24:03; [29]) was at least 20000 nM.
Work on LTAAVLLLI yielded a Kd (HLA-B*58:01 [14]; source organism: Dengue virus 3 Martinique/1243/1999) of 11.3 nM, a Kd (HLA-B*51:01 [15]) of 647 nM and a Kd (HLA-A*01:01 [16]) of at least 78.1 µM.
With LYIEILRLL the Kd (HLA-C*06:02; source organism: Mycobacterium tuberculosis C) was 44 nM and the Kd (HLA-A*24:03; source organism: Mycobacterium avium 104) was 7 nM.
With MEITAEWLW the Kd (HLA-B*44:03) was 9.15 nM, the Kd (HLA-B*58:01 [14]; source organism: Dengue virus 3 Sri Lanka/1266/2000) was 5.39 nM and the Kd (HLA-B*53:01) was 32.1 nM. For the same sequence, the Kd (HLA-B*44:02 [17]) was 4.63 nM.
With MFIIKYFKK the Kd (HLA-A*03:01 [18]; [30]) was at least 20 µM and the Kd (HLA-A*31:01 [10]; [30]) was 246 nM.
RSHAAIGAY gave a Kd (HLA-A*31:01 [10]; [25]) of at least 20000 nM, a Kd (HLA-B*46:01 [19]) of at least 20 µM and a Kd (HLA-A*11:01; [25]) of at least 20 µM. The Kd (HLA-B*15:01 [13]; [25]) was 87 nM.
YIVGYYSAL was tested, and the Kd (HLA-B*39:01) was 87.1 nM, the Kd (HLA-A*02:01 [2]; [29]) was 1.7 nM and the Kd (HLA-A*26:01 [20]; [29]) was 232 nM. The Kd (HLA-C*03:03; source organism: Escherichia coli B171) was at most 1 nM.
YYFSYPLFV showed a Kd (HLA-B*46:01 [21]) of at least 20 µM, a Kd (HLA-A*02:01 [2]; [31]) of 130 nM and a Kd (HLA-A*03:01 [18]; [31]) of at least 20 µM. The Kd (HLA-B*27:03) was at least 20 µM, the Kd (HLA-B*18:01 [22]) was at least 20 µM and the Kd (HLA-A*26:01 [20]; [31]) was at least 20000 nM. For the same sequence, the Kd (HLA-B*15:01 [23]) was at least 20 µM, the Kd (HLA-B*57:01 [24]) was at least 20 µM and the Kd (HLA-C*06:02; [31]) was 6 nM. The Kd (HLA-C*15:02) was 771 nM and the Kd (HLA-C*14:02) was at most 1 nM.
